This note sets out measurements from patent US20190352639A1 (University of Washington, published 2019).

Data set [1] concerns the molecule itself. In words: size exclusion chromatography and negative stain electron microscopy, self-assembly.
Data set [2] deals with the molecule itself. In words: electron cryo-tomography of vesicles from transfected HEK293T cells, self-assembly.

B1: Myr-I3-01-myc-p6 (designed binder)
chain: MGARASGSKSGSGSDSGSKMEELFKKHKIVAVLRANSVEEAKKKALAVFLGGVHLIEITFTVPDADTVIKELSFLKEMGAIIGAGTVTSVEQCRKAVESGAEFIVSPHLDEEISQFCKEKGVFYMPGVMTPTELVKAMKLGHTILKLFPGEVVGPQFVKAMKGPFPNVKFVPTGGVNLDNVCEWFKAGVLAVGVGSALVKGTPVEVAEKAKAFVEKIRGCTEQKLISEEDLQSRPEPTAPPEESFRSGVETTTPPQKQEPIDKELYPLTSLRSLFGNDPSSQ
modifications: N-terminal myristoylation motif (6 N-terminal residues of HIV Gag); myristoylated in mammalian cells, not in E. coli
notes: Fusion of the HIV Gag N-terminal six residues, a linker, I3-01, a myc tag and the HIV Gag p6 domain; also called Myr-I3-01-p6
Regarding B1, the binding result in data set [1] is reported as “binds”.

B2: EPN-01 (designed binder)
chain: MGARASGSKSGSGSDSGSKIEELFKKHKIVAVLRANSVEEAKKKALAVFLGGVHLIEITFTVPDADTVIKELSFLKEMGAIIGAGTVTSVEQCRKAVESGAEFIVSPHLDEEISQFCKEKGVFYMPGVMTPTELVKAMKLGHTILKLFPGEVVGPQFVKAMKGPFPNVKFVPTGGVNLDNVCEWFKAGVLAVGVGSALVKGTPVEVAEKAKAFVEKIRGCTEQKLISEEDLQSRPEPTAPPEESFRSGVETTTPPQKQEPIDKELYPLTSLRSLFGNDPSSQ
modifications: N-terminal myristoylation motif
notes: Myr-I3-01-myc-p6 with the methionine at the N-terminal end of the I3-01 O domain mutated to isoleucine
Consider B2, for which, in data set [2], the binding result is on record as “binds”.
